Results published in patent US20260201033A1 (LTZ THERAPEUTICS, published 2026).
Like-named read-outs stand apart in the source and are kept apart here.

Legend:
[1] = target: T1, EpCAM on DLD-1 cells (human, UniProt P16422 24-314); assay: cell-based or functional assay
T1 sequence (looked up): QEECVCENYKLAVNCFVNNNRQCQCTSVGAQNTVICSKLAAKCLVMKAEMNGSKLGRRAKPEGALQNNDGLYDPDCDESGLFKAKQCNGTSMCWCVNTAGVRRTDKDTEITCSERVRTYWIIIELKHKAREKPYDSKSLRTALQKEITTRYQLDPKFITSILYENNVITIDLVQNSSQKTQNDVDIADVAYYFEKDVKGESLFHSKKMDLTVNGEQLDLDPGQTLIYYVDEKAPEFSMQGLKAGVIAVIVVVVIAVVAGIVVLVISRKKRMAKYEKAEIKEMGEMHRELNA

[2] = target: T1, EpCAM on DLD-1 cells; assay: flow cytometry on DLD-1 cells (EPCAM+), anti-human IgG PE
[3] = target: EGFR on DLD-1 cells (UniProt P00533 25-1210, limits assumed); assay: cell-based or functional assay
[4] = target: T2, human EGFR (ACROBiosystems, Cat #: EGR-H5222) (human, UniProt P00533 25-645); assay: ELISA, plate coated with human EGFR
T2 construct: Bought protein; also called recombinant human EGFR protein

[5] = target: T3, Human CLEC5A His Tag protein (ACROBiosystems, Cat #: CLA-H5243) (human, UniProt Q9NY25 28-188, limits assumed); assay: ELISA, plate coated with human CLEC5A
T3 construct: Bought protein with a His tag; also called recombinant human CLEC5A protein
T3 sequence: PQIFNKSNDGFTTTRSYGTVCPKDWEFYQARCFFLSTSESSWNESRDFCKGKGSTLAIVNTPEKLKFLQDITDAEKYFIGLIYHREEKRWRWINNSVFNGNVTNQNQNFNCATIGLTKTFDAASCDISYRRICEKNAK

[6] = target: T4, Human C-type lectin domain family 5 member A (CLEC5A), endogenous on human monocytes and M0 macrophages (human, UniProt Q9NY25 1-188); assay: flow cytometry on human M0 macrophages, anti-human IgG PE
T4 construct: Endogenous CLEC5A on primary human monocytes and monocyte-derived M0 macrophages; also called MDL-1; M0 macrophages (CLEC5A+) cells
T4 sequence: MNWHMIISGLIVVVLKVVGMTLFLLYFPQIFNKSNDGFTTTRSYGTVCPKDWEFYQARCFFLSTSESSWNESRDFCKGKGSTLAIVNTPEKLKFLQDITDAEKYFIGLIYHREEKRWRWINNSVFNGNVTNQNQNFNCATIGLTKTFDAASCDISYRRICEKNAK

[7] = target: T5, mouse CLEC5A (R&D Systems, Cat #: 8438-CL-050) (mouse, UniProt Q9R007 26-190, limits assumed); assay: ELISA, plate coated with mouse CLEC5A
T5 construct: Bought protein; also called recombinant mouse CLEC5A protein
T5 sequence: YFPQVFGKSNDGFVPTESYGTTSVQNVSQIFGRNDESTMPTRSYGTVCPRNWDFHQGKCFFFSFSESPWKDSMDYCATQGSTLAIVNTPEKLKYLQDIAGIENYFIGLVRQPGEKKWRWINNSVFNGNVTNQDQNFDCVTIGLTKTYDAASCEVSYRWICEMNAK

[8] = target: T3, Human CLEC5A His Tag protein …; assay: ELISA, plate coated with human CLEC5A; remark: listed apart in the source
[9] = target: T4, Human C-type lectin domain family 5 …; assay: flow cytometry on human M0 macrophages, anti-human IgG PE; remark: listed apart in the source
[10] = target: T4, Human C-type lectin domain family 5 …; assay: flow cytometry on human M0 macrophages (CLEC5A+), anti-human IgG PE, MFI (PE)
[11] = target: T6, recombinant human CLEC5A, His Tag (ACROBiosystems, Cat #: NC1-H52H4) (human, UniProt Q9NY25 28-188); assay: BLI, antibody 10 ug/ml captured on anti-human IgG Fc probe, analyte hCLEC5a; table row hCLEC5a 0.78 nM; all four rows print the same value
T6 construct: Analyte of the BLI assay; Its catalogue number differs from that of the ELISA antigen; also called human CLEC5A (BLI analyte)
T6 sequence: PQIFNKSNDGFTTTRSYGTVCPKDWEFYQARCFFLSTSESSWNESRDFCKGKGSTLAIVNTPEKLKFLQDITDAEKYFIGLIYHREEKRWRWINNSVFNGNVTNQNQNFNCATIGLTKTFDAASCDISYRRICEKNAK

[12] = target: T6, recombinant human CLEC5A, His Tag …; assay: BLI, antibody 10 ug/ml captured on anti-human IgG Fc probe, analyte hCLEC5a; table row hCLEC5a 1.56 nM; all four rows print the same value
[13] = target: T6, recombinant human CLEC5A, His Tag …; assay: BLI, antibody 10 ug/ml captured on anti-human IgG Fc probe, analyte hCLEC5a; table row hCLEC5a 3.12 nM; all four rows print the same value
[14] = target: T6, recombinant human CLEC5A, His Tag …; assay: BLI, antibody 10 ug/ml captured on anti-human IgG Fc probe, analyte hCLEC5a; table row hCLEC5a 6.25 nM; all four rows print the same value

B1: anti-EpCAM antibody (Solitomab EpCAM binding part IgG form) (antibody, V domains shown)
VH: QVQLQQSGAELVRPGTSVKVSCKASGYAFTNYLIEWVKQRPGQGLEWIGVINPGSGGTNYNEKFKGKATLTADKSSSTAYMQLSSLTSDDSAVYFCARDGPWFAYWGQGTLVTVSA
VL: NIVMTQSPKSMSMSVGERVTLTCKASENVVTYVSWYQQKPEQSPKLLIYGASNRYTGVPDRFTGSGSATDFTLTISSVQAEDLADYHCGQGYSYPYTFGGGTKLEIK
notes: IgG form
- IC50 (nM), DLD-1 cell killing by M0 macrophages [1]: 0.0812 nM
- EC50 [2]: 0.67 nM

B2: EGFR2/5C7 (2+2 A) Fc-optimized (bispecific antibody, human IgG1, kappa)
heavy: QVQLQQSGAEVKKPGSSVKVSCKASGYTFTNYYIYWVRQAPGQGLEWIGGINPTSGGSNFNEKFKTRVTITADESSTTAYMELSSLRSEDTAFYFCTRQGLWFDSDGRGFDFWGQGTTVTVSSASTKGPSVFPLAPSSKSTSGGTAALGCLVKDYFPEPVTVSWNSGALTSGVHTFPAVLQSSGLYSLSSVVTVPSSSLGTQTYICNVNHKPSNTKVDKKVEPKSCDKTHTCPPCPAPELLAGPSVFLFPPKPKDTLMISRTPEVTCVVVDVSHEDPEVKFNWYVDGVEVHNAKTKPREEQYNSTYRVVSVLTVLHQDWLNGKEYKCKVSNKALPLPEEKTISKAKGQPREPQVYTLPPSRDELTKNQVSLTCLVKGFYPSDIAVEWESNGQPENNYKTTPPVLDSDGSFFLYSKLTVDKSRWQQGNVFSCSVMHEALHNHYTQKSLSLSPGK
light: DIQMTQSPSSLSASVGDRVTITCRSSQNIVHSNGNTYLDWYQQTPGKAPKLLIYKVSNRFSGVPSRFSGSGSGTDFTFTISSLQPEDIATYYCFQYSHVPWTFGQGTKLEIKRTVAAPSVFIFPPSDEQLKSGTASVVCLLNNFYPREAKVQWKVDNALQSGNSQESVTEQDSKDSTYSLSSTLTLSKADYEKHKVYACEVTHQGLSSPVTKSFNRGECGGGGSGGGGSGGGGSAIVMTQTPSSKSVPVGDTVTINCQASESVDRNNRLAWFQQKPGQPPKLLIYTTSTLASGVPSRFKGSGSGTHFTLTISDVVPDDAATYYCAGYRGAHTDGDAFGCGTEVVVKGGGGSGGGGSGGGGSGGGGSQSLEESGGDLVKPGASLTLTCTASGFSFSRSSYMCWVRQAPGKCLEWIGCLSVGDGHTYYASWAKGRFTISKTSSTSVTLQMTRLTAADTATYFCARAPSYSGDGGHGYDLWGPGTLVTVSS
notes: also called EGFR/CLEC5A (2+2 A) Fc-optimized antibody with EGFR portion of Nimotuzumab (EGFR2)
- IC50 (nM), DLD-1 cell killing by M0 macrophages [3]: 0.00471 nM
- EC50 [4]: 0.12 µg/mL
- EC50 [5]: 0.081 µg/mL
- EC50 [6]: 19.5 nM

B3: EpCAM/5C7 (2+2 A) Fc-optimized (bispecific antibody, human IgG1, kappa)
heavy: QVQLQQSGAELVRPGTSVKVSCKASGYAFTNYLIEWVKQRPGQGLEWIGVINPGSGGTNYNEKFKGKATLTADKSSSTAYMQLSSLTSDDSAVYFCARDGPWFAYWGQGTLVTVSAASTKGPSVFPLAPSSKSTSGGTAALGCLVKDYFPEPVTVSWNSGALTSGVHTFPAVLQSSGLYSLSSVVTVPSSSLGTQTYICNVNHKPSNTKVDKKVEPKSCDKTHTCPPCPAPELLAGPSVFLFPPKPKDTLMISRTPEVTCVVVDVSHEDPEVKFNWYVDGVEVHNAKTKPREEQYNSTYRVVSVLTVLHQDWLNGKEYKCKVSNKALPLPEEKTISKAKGQPREPQVYTLPPSRDELTKNQVSLTCLVKGFYPSDIAVEWESNGQPENNYKTTPPVLDSDGSFFLYSKLTVDKSRWQQGNVFSCSVMHEALHNHYTQKSLSLSPGK
light: NIVMTQSPKSMSMSVGERVTLTCKASENVVTYVSWYQQKPEQSPKLLIYGASNRYTGVPDRFTGSGSATDFTLTISSVQAEDLADYHCGQGYSYPYTFGGGTKLEIKRTVAAPSVFIFPPSDEQLKSGTASVVCLLNNFYPREAKVQWKVDNALQSGNSQESVTEQDSKDSTYSLSSTLTLSKADYEKHKVYACEVTHQGLSSPVTKSFNRGECGGGGSGGGGSGGGGSAIVMTQTPSSKSVPVGDTVTINCQASESVDRNNRLAWFQQKPGQPPKLLIYTTSTLASGVPSRFKGSGSGTHFTLTISDVVPDDAATYYCAGYRGAHTDGDAFGCGTEVVVKGGGGSGGGGSGGGGSGGGGSQSLEESGGDLVKPGASLTLTCTASGFSFSRSSYMCWVRQAPGKCLEWIGCLSVGDGHTYYASWAKGRFTISKTSSTSVTLQMTRLTAADTATYFCARAPSYSGDGGHGYDLWGPGTLVTVSS
notes: also called EpCAM/CLEC5A (2+2 A) Fc-optimized antibody; EpCAM/CLEC5A bispecific antibody
- IC50 (nM), DLD-1 cell killing by M0 macrophages [1]: 0.0035 nM
- EC50 [5]: 0.064 µg/mL
- EC50 [6]: 7.35 nM
- EC50 [2]: 1.1 nM

B4: 5C7, chimeric rabbit/human IgG1 anti-CLEC5A antibody (Fc-silenced) (antibody, V domains shown)
VH: QSLEESGGDLVKPGASLTLTCTASGFSFSRSSYMCWVRQAPGKGLEWIGCLSVGDGHTYYASWAKGRFTISKTSSTSVTLQMTRLTAADTATYFCARAPSYSGDGGHGYDLWGPGTLVTVSS
VL: AIVMTQTPSSKSVPVGDTVTINCQASESVDRNNRLAWFQQKPGQPPKLLIYTTSTLASGVPSRFKGSGSGTHFTLTISDVVPDDAATYYCAGYRGAHTDGDAFGGGTEVVVK
notes: also called ch5C7; 5C7 Fc-silenced
- EC50 [7]: 0.194 nM
- EC50 [8]: 0.9 nM
- EC50 [5]: 0.158 µg/mL
- EC50 [9]: 3.93 nM
- EC50 [6]: 0.49 nM
- EC50 (read off the curve) [10]: ~0.8 nM
- Kd [11]: 0.15 nM
- koff [11]: 0.000189 s⁻¹
- kon [11]: 1.26e+06 M⁻¹ s⁻¹
- Kd [12]: 0.15 nM
- koff [12]: 0.000189 s⁻¹
- kon [12]: 1.26e+06 M⁻¹ s⁻¹
- Kd [13]: 0.15 nM
- koff [13]: 0.000189 s⁻¹
- kon [13]: 1.26e+06 M⁻¹ s⁻¹
- Kd [14]: 0.15 nM
- koff [14]: 0.000189 s⁻¹
- kon [14]: 1.26e+06 M⁻¹ s⁻¹
